Measurements taken from patent US20040072754A1, “Amyloid precursor protein and APP-deprived peptides inhibit tumor growth and metastasis” (priority 2000, published 2004).
No end group written: not given here.

Assays:
[1] = system: D122 tumor cells (Lewis lung carcinoma); test: Lewis lung carcinoma (D122) i.v. lung metastasis model with i.p. injected Aβ peptides; type: in vivo, C57/BL mice; conditions: 20 μg/mouse/injection (Aβ96-110: 10 μg), 7 times during two weeks before and 7 times after D122 i.v. injection; examined after 21 days
Description: The intravenous (i.v.) model. […] D122 or B16 tumor cells were injected i.v. into Tg-APP, Tg-APP/SOD or parental mice and metastasis was evaluated after 30-37 days. In certain long-term experiments the evaluation was performed over a period of 120-140 days post injection of the tumor cells.
Aβ peptides in phosphate buffered saline (PBS) were injected i.p. into C57/BL mice 4-7 times (7-10 μg each time or 10-20 μg each time in other experiments) during two weeks preceding D122 or B16 tumor cells injection and seven times every second day following D122 or B16 tumor cells injection. Control mice were i.p. injected with PBS. Mice were sacrificed 20-21 days following injection of D122 or B16 tumor cells by injecting 20 mg/mouse Xylazine (i.p.) and lungs were weighed. Lungs were fixed, stained in Bouin's solution and metastases counted. For histology, lungs were fixed in buffered formalin and histological sections were prepared and stained with Hematoxylin-Eosin. Each experimental group included 7-12 animals, and experiments were repeated twice.
D122 tumor cells were injected i.v. to the tail of C57/BL mice. […] All together 77 μg of AP 1-42 were injected into each mouse. After 21 days tumor weight and number of metastases in the lungs were examined.
D122 tumor cells were injected intravenously to the tail of C57/BL mice. […]

[2] = system: hippocampal cell cultures; conditions: Iversen et al., 1995; cited from earlier work

| Substance | reduction of the number of metastases in the lungs [1] | toxicity to neuronal cells [2] |
| --- | --- | --- |
| NWCKRGRKQCKTHPH (cysteine pairing not given here) [Aβ96-10] | 9% |  |
| Aβ1-40: Aβ sequence fragment tested for neurotoxicity in the literature |  | induced toxicity |
| Aβ25-35: Aβ sequence fragment tested for neurotoxicity in the literature (GSNKGAIIGLM; Amyloid-beta protein 42; UniProt P05067 696-706, looked up, fragment) |  | induced toxicity |
| Aβ1-28: Aβ sequence fragment tested for neurotoxicity in the literature |  | non-toxic |
| Aβ1-38: Aβ sequence fragment tested for neurotoxicity in the literature |  | induced toxicity |
